Laboratory results as given in patent publication US20110130541A1.

Key:
[1] = tested on: CapO
[2] = tested on: BYK001

## BY-kinase A1B2 from Staphylococcus aureus
[1]
  Radioactivity incorporated in CapO (cpm); 50 pmol A1B2, 50 pmole CapO, no BYK001, incubation 0.5 min: 3950 cpm
  Radioactivity incorporated in CapO (cpm); 50 pmol A1B2, 50 pmole CapO, no BYK001, incubation 1 min: 7040 cpm
  Radioactivity incorporated in CapO (cpm); 50 pmol A1B2, 50 pmole CapO, no BYK001, incubation 2 min: 17400 cpm
  Radioactivity incorporated in CapO (cpm); 50 pmol A1B2, 50 pmole CapO, no BYK001, incubation 5 min: 34700 cpm
[2]
  Radioactivity incorporated in A1B2 (cpm); 50 pmole BYK001, 50 pmole A1B2, incubation 0.5 min: 29200 cpm
  Radioactivity incorporated in A1B2 (cpm); 50 pmole BYK001, 50 pmole A1B2, incubation 1 min: 71700 cpm
  Radioactivity incorporated in A1B2 (cpm); 50 pmole BYK001, 50 pmole A1B2, incubation 2 min: 133000 cpm
  Radioactivity incorporated in A1B2 (cpm); 50 pmole BYK001, 50 pmole A1B2, incubation 5 min: 326000 cpm
  Radioactivity incorporated in A1B2 (cpm); 500 pmole BYK001, 50 pmole A1B2, incubation 0.5 min: 30700 cpm
  Radioactivity incorporated in A1B2 (cpm); 500 pmole BYK001, 50 pmole A1B2, incubation 1 min: 72500 cpm
  Radioactivity incorporated in A1B2 (cpm); 500 pmole BYK001, 50 pmole A1B2, incubation 2 min: 134000 cpm
  Radioactivity incorporated in A1B2 (cpm); 500 pmole BYK001, 50 pmole A1B2, incubation 5 min: 325000 cpm
  Radioactivity incorporated in A1B2 (cpm); 5000 pmole BYK001, 50 pmole A1B2, incubation 0.5 min: 29900 cpm
  Radioactivity incorporated in A1B2 (cpm); 5000 pmole BYK001, 50 pmole A1B2, incubation 1 min: 72500 cpm
  Radioactivity incorporated in A1B2 (cpm); 5000 pmole BYK001, 50 pmole A1B2, incubation 2 min: 141000 cpm
  Radioactivity incorporated in A1B2 (cpm); 5000 pmole BYK001, 50 pmole A1B2, incubation 5 min: 324000 cpm
  Radioactivity incorporated in CapO (cpm); 50 pmole BYK001, 50 pmol A1B2, 50 pmole CapO, incubation 0.5 min: 3560 cpm
  Radioactivity incorporated in CapO (cpm); 50 pmole BYK001, 50 pmol A1B2, 50 pmole CapO, incubation 1 min: 6390 cpm
  Radioactivity incorporated in CapO (cpm); 50 pmole BYK001, 50 pmol A1B2, 50 pmole CapO, incubation 2 min: 15500 cpm
  Radioactivity incorporated in CapO (cpm); 50 pmole BYK001, 50 pmol A1B2, 50 pmole CapO, incubation 5 min: 31900 cpm
  Radioactivity incorporated in CapO (cpm); 500 pmole BYK001, 50 pmol A1B2, 50 pmole CapO, incubation 0.5 min: 3500 cpm
  Radioactivity incorporated in CapO (cpm); 500 pmole BYK001, 50 pmol A1B2, 50 pmole CapO, incubation 1 min: 6300 cpm
  Radioactivity incorporated in CapO (cpm); 500 pmole BYK001, 50 pmol A1B2, 50 pmole CapO, incubation 2 min: 15500 cpm
  Radioactivity incorporated in CapO (cpm); 500 pmole BYK001, 50 pmol A1B2, 50 pmole CapO, incubation 5 min: 31300 cpm
  Radioactivity incorporated in CapO (cpm); 5000 pmole BYK001, 50 pmol A1B2, 50 pmole CapO, incubation 0.5 min: 3510 cpm
  Radioactivity incorporated in CapO (cpm); 5000 pmole BYK001, 50 pmol A1B2, 50 pmole CapO, incubation 1 min: 6320 cpm
  Radioactivity incorporated in CapO (cpm); 5000 pmole BYK001, 50 pmol A1B2, 50 pmole CapO, incubation 2 min: 15500 cpm
  Radioactivity incorporated in CapO (cpm); 5000 pmole BYK001, 50 pmol A1B2, 50 pmole CapO, incubation 5 min: 31000 cpm
